{
  "source": "patent US20030180282A1",
  "about": "“Method of treatment of thrombotic events” (priority 2002, published 2003)",
  "molecules": {"B1": {"name": "TNK: form of tissue plasminogen activator, thrombolytic agent (Genentech) (protein, UniProt P00750 36-562, looked up, variant T103N N117Q K296A H297A R298A R299A)", "Tissue-type plasminogen …": "SYQVICRDEKTQMIYQQHQSWLRPVLRSNRVEYCWCNSGRAQCHSVPVKSCSEPRCFNGGTCQQALYFSDFVCQCPEGFAGKCCEIDTRATCYEDQGISYRGNWSTAESGAECTNWQSSALAQKPYSGRRPDAIRLGLGNHNYCRNPDRDSKPWCYVFKAGKYSSEFCSTPACSEGNSDCYFGNGSAYRGTHSLTESGASCLPWNSMILIGKVYTAQNPSAQALGLGKHNYCRNPDGDAKPWCHVLKNRRLTWEYCDVPSCSTCGLRQYSQPQFRIKGGLFADIASHPWQAAIFAAAAASPGERFLCGGILISSCWILSAAHCFQERFPPHHLTVILGRTYRVVPGEEEQKFEVEKYIVHKEFDDDTYDNDIALLQLKSDSSRCAQESSVVRTVCLPPADLQLPDWTECELSGYGKHEALSPFYSERLKEAHVRLYPSSRCTSQHLLNRTVTDNMLCAGDTRSGGPQANLHDACQGDSGGPLVCLNDGRMTLVGIISWGLGCGQKDVPGVYTKVTNYLDWIRDNMRP"}},
  "key": {"platelets [1]": {"tested_on": "platelets", "test": "PFA-100 platelet function analyzer, closure time", "format": "cell-based, human", "conditions": "TNK 12 μg/mL, t-PA 4 μg/mL", "protocol": "(§1) Blood samples for the in vitro study were obtained from 9 healthy volunteers. None of the subjects smoked or had hypertension, diabetes, or an abnormal hematocrit. None had received aspirin or any other antiplatelet drugs. All subjects underwent blood sampling after at least 30 minutes of rest and 2 or more hours of fasting. Blood was drawn from an antecubital vein between 8 am and 10 am in order to avoid any diurnal influence. A 21-gauge butterfly needle was used to draw blood into a tube containing 3.8% sodium citrate (1:9 volume); the first 1.5 mL of free running blood was discarded. One tube was kept as an internal control. A second tube was incubated with tenecteplase (TNK) for 30 minutes at room temperature in order to achieve a final concentration of 12 μg/mL. The third tube was similarly incubated with alteplase (t-PA) to achieve a concentration of 4 μg/mL. The concentrations of TNK and t-PA that were chosen approximated conventional plasma levels observed in patients receiving TNK and t-PA bolus (30 mg, and 15 mg, respectively; data on file, Genentech, Inc., South San Francisco, Calif.). Fresh solutions of TNK and t-PA were prepared in Dulbecco's phosphate buffered saline (DPBS) ex tempore on the morning of the platelet studies.\nThe PFA-100™ (Dade Behring, Deerfield, Ill.) is a high shear-inducing platelet function analyzer that simulates primary hemostasis after injury to a small vessel under flow conditions (see, e.g. Kundu, S. K. et al. (1996) Clin. Appl. Thromb. Hemost. 2:241-249). The device provides a constant negative pressure that aspirates a whole blood-citrate mixture, which comes into contact with a collagen-coated membrane and then passes through an aperture. The time required to obtain occlusion of the aperture is digitally recorded and is a measure of shear-induced platelet aggregation.\n(§2) For all comparisons, statistical analyses were done by using repeated measures ANOVA. […] Normally distributed data were expressed as mean±SE, and skewed data as median (range). […]"}, "platelets [2]": {"tested_on": "platelets", "test": "rapid platelet-function assay (Ultegra)", "format": "cell-based, human", "conditions": "TNK 12 μg/mL, t-PA 4 μg/mL", "protocol": "as §1\nWith rapid platelet-function assay (RPFA (Ultegra®); Accumetrics, Inc., San Diego, Calif.), polystyrene beads coated with fibrinogen are placed in a cartridge along with a peptide that activates the thrombin receptor. A whole blood citrate mixture is added to the cartridge, and agglutination between platelets and coated beads is recorded. The data mirror turbidometric platelet aggregation and reflect the degree of platelet glycoprotein IIb/IIIa blockade.\nFor all comparisons, statistical analyses were done by using repeated measures ANOVA. Post hoc comparison was performed by use of the Bonferroni t-test to identify specific differences in platelet aggregation and receptor expression between patients treated with TNK and t-PA, and controls. […] Normally distributed data were expressed as mean±SE, and skewed data as median (range). […]"}, "platelets [3]": {"tested_on": "platelets", "test": "in vitro comparison of TNK versus t-PA on platelet activation and surface receptor expression (15 parameters)", "format": "cell-based, human", "conditions": "TNK 12 μg/mL, t-PA 4 μg/mL, 30 minutes", "protocol": "(§3) Blood samples for the in vitro study were obtained from 9 healthy volunteers. None of the subjects smoked or had hypertension, diabetes, or an abnormal hematocrit. None had received aspirin or any other antiplatelet drugs. All subjects underwent blood sampling after at least 30 minutes of rest and 2 or more hours of fasting. Blood was drawn from an antecubital vein between 8 am and 10 am in order to avoid any diurnal influence. A 21-gauge butterfly needle was used to draw blood into a tube containing 3.8% sodium citrate (1:9 volume); the first 1.5 mL of free running blood was discarded. One tube was kept as an internal control. A second tube was incubated with tenecteplase (TNK) for 30 minutes at room temperature in order to achieve a final concentration of 12 μg/mL. […]\nFor the platelet aggregation (PA) studies, platelet-rich plasma (PRP) was first isolated. […] Platelet counts were determined for each PRP sample with a Coulter Counter ZM (Coulter Co., Hialeah, Fla.). […] Platelet aggregation was determined by using a 4 channel Chrono-log Lumi-Aggregometer (model 560-Ca) and expressed as the maximum percentage of light transmittance change (% max) from the baseline at the end of the recording time. […] Platelet aggregability curves were recorded for 6 minutes and analyzed according to internationally established standards (see, e.g., Ruggeri, Z. M. (1994) Semin. Hemat. 31:229-239). […]"}, "platelets [4]": {"tested_on": "platelets", "test": "in vitro whole blood aggregometry (impedance)", "format": "cell-based, human", "conditions": "5 μg/mL collagen; TNK 12 μg/mL, t-PA 4 μg/mL", "protocol": "as §3\nWhole blood samples were prepared as follows: whole blood citrate mixture was diluted 1:1 with 0.5 mL Tyrode's buffer solution, then swirled gently. […] Platelet aggregability was expressed as the change in electrical impedance and is expressed in ohms. Aggregation curves were recorded for 6 minutes and analyzed by use of Aggrolink® software (Chrono-log Corporation).\nas §2"}, "platelets [5]": {"tested_on": "platelets", "test": "in vitro whole blood flow cytometry of platelet receptors and platelet-monocyte aggregates", "format": "cell-based, human", "conditions": "TNK 12 μg/mL, t-PA 4 μg/mL", "protocol": "as §1\nThe surface expression of platelet receptors was determined by flow cytometry by using the following monoclonal antibodies: CD 41 (glycoprotein [GP] IIb/IIIa, α IIbβ3) CD 42b (GP Ib), CD 62p (P-selectin), CD 51/CD 61 (αvβ3, or vitronectin receptor), CD 31 (platelet endothelial cell adhesion molecule [PECAM]-1), CD 107a (LAMP-1), CD 107b (LAMP-2), CD 63 (LIMP or LAMP-3), and CD 151 (PETA-3) (PharMingen, San Diego, Calif.). Platelet-leukocyte interactions were assessed by using dual antibodies for a pan-platelet marker (CD 41), together with CD 14, a monocyte/macrophage marker. The blood-citrate mixture (50 μl) was diluted with 450 μl Tris buffered saline (TBS) (10 mmol/L Tris, 0.15 mol/L sodium chloride) and mixed by gently inverting an Eppendorf tube 2 times. The corresponding antibody was then added (5 μl) and incubated at 4° C. for 30 minutes. After incubation, 400 μl of 2% buffered paraformaldehyde was added for fixation. The samples were analyzed on a Becton Dickinson FACScan flow cytometer set up to measure fluorescent light scatter, as previously described. All parameters were collected by using 4-decade logarithmic amplification. The data were collected in list mode files and then analyzed. P-selectin was expressed as percent positive cells. Other antigens were expressed as log mean fluorescence intensity.\n(§4) For all comparisons, statistical analyses were done by using repeated measures ANOVA. Post hoc comparison was performed by use of the Bonferroni t-test to identify specific differences in platelet aggregation and receptor expression between patients treated with TNK and t-PA, and controls. The Mann-Whitney U test was used to analyze non-parametric data. Normally distributed data were expressed as mean±SE, and skewed data as median (range). Probability values of P<0.05 were regarded as statistically significant. Linear regression analysis was applied to normally distributed data for all study participants by using the Statview 4.1 program for analysis."}, "[6]": {"tested_on": "platelet-derived biomarkers", "test": "ASSENT-2 platelet substudy: ELISA of platelet-derived biomarkers in plasma of AMI patients", "format": "in vivo, human", "protocol": "Forty-one patients with ST-segment elevation AMI enrolled in a single ASSENT-2 site (Rashid Hospital, Dubai, United Arab Emirates) were studied. The inclusion and exclusion criteria of ASSENT-2 have been previously reported ([no authors listed] (1999) Lancet 354:716-722). Briefly, patients included in the trial were between 18 and 70 years of age and were seen within 6 hours of symptom onset with >30 minutes of continuous symptoms. […] After informed consent was obtained, 7 serum samples were drawn. Samples were collected at baseline and at 30-minute intervals during a 180-minute period. Within 15 minutes of sample acquisition, plasma was separated by centrifugation at 800 g for 10 minutes, aspirated, placed in vials, and snapped frozen at −20° C.\nEnzyme-linked immunosorbent assay (ELISA) was used according to standard sandwich techniques for CD 31 (sPECAM-1), sVACAM-1, sP-selectin, (R&D Systems Inc. Minneapolis, Minn.), beta-thromboglobulin, Asserachrom® (Diagnostica Stago Inc., Parsippany, N.J.), platelet factor 4 Asserachrom®, thromboxane, and prostacyclin (Cayman Chemical Co., MI). Each sample was measured in duplicate, and the overall intra-assay coefficient of variation was between 3.1%±0.4% and 7.6%±1.0%, with a plasma recovery rate between 89.7% and 98.7%.\nas §4\nIn the ASSENT-2 Platelet Substudy, 21 of the 41 patients enrolled received TNK (30-50 mg), while the remaining 20 received t-PA (40-85 mg). There were no substantial differences in baseline characteristics for the AMI patients."}},
  "data": [
    {"molecule": "B1", "values": [
      {"measurement": "closure time (PFA-100) compared with DPBS", "setting": "platelets [1]", "result": "prolongation"},
      {"measurement": "closure time with the ADP/collagen cartridge (PFA-100), TNK versus t-PA samples", "setting": "platelets [1]", "result": "extension"},
      {"measurement": "platelet activation units (Ultegra) compared with DPBS", "setting": "platelets [2]", "result": "reduction"},
      {"measurement": "platelet activation with the Ultegra analyzer, TNK versus t-PA samples", "setting": "platelets [2]", "result": "statistically significant decrease"},
      {"measurement": "platelet function, 10 of 15 parameters, compared with baseline DPBS values", "setting": "platelets [3]", "result": "diminished platelet function"},
      {"measurement": "whole blood aggregometry, TNK versus t-PA samples", "setting": "platelets [4]", "result": "statistically significant decrease"},
      {"measurement": "CD 151 expression, TNK versus t-PA samples", "setting": "platelets [5]", "result": "Significant reduction"},
      {"measurement": "PECAM-1 expression, TNK versus t-PA samples", "setting": "platelets [5]", "result": "Significant reduction"},
      {"measurement": "expression of PECAM-1 compared with saline-treated samples", "setting": "platelets [5]", "result": "trend toward diminished expression"},
      {"measurement": "expression of glycoprotein IIb/IIIa compared with saline-treated samples", "setting": "platelets [5]", "result": "reduced expression"},
      {"measurement": "formation of platelet-monocyte aggregates compared with saline-treated samples", "setting": "platelets [5]", "result": "trend toward diminished"},
      {"measurement": "formation of platelet-monocyte aggregates, TNK versus t-PA", "setting": "platelets [5]", "result": "lower"},
      {"measurement": "glycoprotein IIb/IIIa expression, TNK versus t-PA samples", "setting": "platelets [5]", "result": "Significant reduction"},
      {"measurement": "vitronectin receptor expression, TNK versus t-PA samples", "setting": "platelets [5]", "result": "Significant reduction"},
      {"measurement": "P-selectin plasma concentrations", "setting": "[6]; 30-60 minutes", "result": "immediate increase"},
      {"measurement": "P-selectin plasma concentrations", "setting": "[6]; 120-150 minutes", "result": "significant decrease"},
      {"measurement": "P-selectin plasma concentrations", "setting": "[6]; 180 minutes", "result": "rebound"},
      {"measurement": "plasma levels of PECAM-1", "setting": "[6]; AMI patients after thrombolysis", "result": "significantly inhibited"},
      {"measurement": "release of substances from platelets (plasma biomarkers)", "setting": "[6]; TNK 30-50 mg, t-PA 40-85 mg, 180-minute period", "result": "decreased release"},
      {"measurement": "vascular cell adhesion molecule-1 (VCAM-1) release", "setting": "[6]; after 90 minutes", "result": "inhibited significantly"},
      {"measurement": "inhibition of thromboxane formation, TNK versus t-PA", "setting": "[6]; human, in vivo", "result": "significantly stronger"},
      {"measurement": "pattern of prostacyclin release, between the agents", "setting": "[6]; human, in vivo", "result": "very similar"},
      {"measurement": "plasma concentrations of prostacyclin", "setting": "[6]; human, in vivo", "result": "significant and early decrease"},
      {"measurement": "plasma concentrations of thromboxane", "setting": "[6]; human, in vivo", "result": "significant and early decrease"},
      {"measurement": "prevention of platelet activation, TNK versus t-PA group", "setting": "[6]; human, in vivo", "result": "stronger prevention of platelet activation"}
    ]}
  ]
}
